Source: patent publication US20230365681A1 (CELGENE, published 2023)
Substitutions are numbered along the chain they refer to. Each block holds one binder with its values, some of them ahead of it.

How the values were obtained:
[1] = target: T1, human CD47 on cells (human, UniProt Q08722 19-323); test: cell-based or functional assay
[2] = target: T2, human CD47 extracellular domain (human, UniProt Q08722 19-139); test: column HUMAN CD47 KD (µM); no assay named on the sheet, SPR with the CD47 ECD per Example 4
T2 construct: extracellular domain; also called human CD47 ECD; Hu CD47
T2 sequence (Q08722 19-139 limits assumed): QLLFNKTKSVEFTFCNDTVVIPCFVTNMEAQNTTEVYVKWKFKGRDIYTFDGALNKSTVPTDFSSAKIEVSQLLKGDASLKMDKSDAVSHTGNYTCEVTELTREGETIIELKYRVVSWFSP

[3] = target: T2, human CD47 extracellular domain; test: method not given; human CD47, form not stated there
[4] = target: T1, human CD47 on cells; test: blocking of human SIRPα binding to OCI-Ly3 cells; competitor SIRPα; TPP-23, parental high-affinity anti-CD47 IgG1; OCI-Ly3 cells

T1 sequence (Q08722 19-323): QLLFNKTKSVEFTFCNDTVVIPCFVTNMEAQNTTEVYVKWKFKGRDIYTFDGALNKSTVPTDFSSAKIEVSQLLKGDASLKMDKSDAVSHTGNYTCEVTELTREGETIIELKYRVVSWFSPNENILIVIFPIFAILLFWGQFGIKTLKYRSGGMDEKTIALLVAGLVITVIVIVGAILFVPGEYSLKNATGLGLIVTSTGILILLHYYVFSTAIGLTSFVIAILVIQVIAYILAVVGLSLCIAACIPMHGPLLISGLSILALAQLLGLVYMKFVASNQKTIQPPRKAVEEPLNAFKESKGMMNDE

EC50 of macrophage phagocytosis of OCI-Ly3 cells, OCI-Ly3 Mφ EC50 (µg/mL) REPEAT [1]: 0.45 µg/mL | EC50 of macrophage phagocytosis of OCI-Ly3 cells, column OCI-Ly3 Mφ EC50 [1]: 0.5 µg/mL | Kd [2]: 2530 nM
B1: TPP-1361 (bispecific antibody, human IgG1, kappa)
light 1: NIQMTQSPSSLSASVGDRVTITCQASQDIHRYLSWFQQDPGTVPQHLIYRESRFVDGVPSRFSGSGSGTEFTLTISSLQPEDFATYYCLQYDEFPYTFGGGTKVEIKRTVAAPSVFIFPPSDEELKSGTASVVCWLNNFYPREAKVQWKVDNALQSGNSEESVTEQDSKDSTYSLSSTLELSKADYEKHKVYACEVTHQGLSSPVTKSFNRGEC
heavy 1: QMQLVQSGAEVKKPGSSVKVSCKASGFNIKDYYLHWVRQAPGQGLEWMGWIDPDQGDTYYAQKFQGRVTITRDRSTSTAYMELASLTAEDTAVYYCNAAYGESSYPMDYWGQGTLVTVSSASTKGPSVFPLAPSSKSTSGGTAALGCLVKDYFPEPVTVSWNSGALTSGVHTFPAVLKSSGLYSLSSVVTVPSSSLGTQTYICNVNHKPSNTKVDKKVEPKSCDKTHTCPPCPAPELLGGPSVFLFPPKPKDTLMISRTPEVTCVVVDVSHEDPEVKFNWYVDGVEVHNAKTKPREEQYNSTYRVVSVLTVLHQDWLNGKEYKCKVSNKALPAPIEKTISKAKGQPREPQVYVLPPSREEMTKNQVSLLCLVKGFYPSDIAVEWESNGQPENNYLTWPPVLDSDGSFFLYSKLTVDKSRWQQGNVFSCSVMHEALHNHYTQKSLSLSPGK
light 2: QIVLSQSPAILSASPGEKVTMTCRASSSVSYIHWFQQKPGSSPKPWIYATSNLASGVPVRFSGSGSGTSYSLTISRVEAEDAATYYCQQWTSNPPTFGGGTKLEIKRTVAAPSVAIFPPSDERLKSGTASVVCVLNNFYPREAKVQWKVDNALQSGNSQESVTEQDSKDSTYSLSSRLTLSKADYEKHKVYACEVTHQGLSSPVTKSFNRGEC
heavy 2: QVQLQQPGAELVKPGASVKMSCKASGYTFTSYNMHWVKQTPGRGLEWIGAIYPGNGDTSYNQKFKGKATLTADKSSSTAYMQLSSLTSEDSAVYYCARSTYYGGDWYFNVWGAGTTVTVSAASTKGPSVFPLAPSSKSTSGGTAWLGCEVTDYFPEPVTVSWNSGALTSGVHTFPAVLESSGLYSLSSVVTVPSSSLGTQTYICNVNHKPSNTKVDKKVEPKSCDKTHTCPPCPAPELLGGPSVFLFPPKPKDTLMISRTPEVTCVVVDVSHEDPEVKFNWYVDGVEVHNAKTKPREEQYNSTYRVVSVLTVLHQDWLNGKEYKCKVSNKALPAPIEKTISKAKGQPREPQVYVYPPSREEMTKNQVSLTCLVKGFYPSDIAVEWESNGQPENNYKTTPPVLDSDGSFALVSKLTVDKSRWQQGNVFSCSVMHEALHNHYTQKSLSLSPGK
notes: Four-chain IgG1 heterodimer; also called CD47xCD20 bispecific

EC50 of macrophage phagocytosis of OCI-Ly3 cells, OCI-Ly3 Mφ EC50 (µg/mL) REPEAT [1]: 0.046 µg/mL | EC50 of macrophage phagocytosis of OCI-Ly3 cells, column OCI-Ly3 Mφ EC50 [1]: 0.064 µg/mL | Kd [2]: 430 nM
B2: TPP-1367 (bispecific antibody, human IgG1, kappa)
anti-CD47 light chain: B1 light 1 with Q24R, D39K, T42K, Q45K, E51A, S52N, F54L, D56S
anti-CD47 heavy chain: B1 heavy 1 with Q43K, A84R, T87R
anti-CD20 light chain: B1 light 2
anti-CD20 heavy chain: B1 heavy 2
notes: IgG1 1+1 heterodimer; also called CD47/CD20 TPP1367; CD47xCD20 bispecific

Kd [3]: 0.54 nM
B3: CC-90002 (antibody, V domains shown)
VH: QMQLVQSGAEVKKTGSSVKVSCKASGFNIKDYYLHWVRQAPGQALEWMGWIDPDQGDTEYAQKFQDRVTITRDRSMSTAYMELSSLRSEDTAMYYCNAAYGSSSYPMDYWGQGTTVTVSS
VL: NIQMTQSPSAMSASVGDRVTITCKASQDIHRYLSWFQQKPGKVPKHLIYRANRLVSGVPSRFSGSGSGTEFTLTISSLQPEDFATYYCLQYDEFPYTFGGGTKVEIK
notes: also called anti-CD47 monoclonal antibody CC-90002

IC50 [4]: 0.11 nM
B4: TPP-23 (408_437 Fab with IgG1) (antibody, V domains shown)
VH: B3 VH with T14P, Q43K, A44G, D66G, M76T, S84R, S88A, M93V, T115L
VL: B3 VL with A10S, M11L, K24R
notes: The crystal structure was made with an anti-CD47 Fab of this antibody; also called parental CD47 mAb
